Assay results reported in patent publication US20190071490A1 (BETH ISRAEL DEACONESS MEDICAL CENTER, published 2019).
Ends that are not written are not given here.

What was measured:
human α-CGRP 1-37 (WT) [1] = biological target: T1, human α-CGRP 1-37 (WT) (human, C-terminal amide; N-terminal biotin when captured on the SA chip; 125I-labelled in the radioligand assay); assay: Biacore, 37°C, Fab over CGRP on SA chip
T1 construct: also called α-human
T1 peptide: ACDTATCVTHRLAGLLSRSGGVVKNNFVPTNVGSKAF
Procedure, shortened: (§1)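 Fab analyte flowed over N-biotinylated CGRP captured at low density on a streptavidin chip in HBS-EP (pH 7.4), 1-min injections at 100 μL/min, at least 10 min dissociation.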

rat α-CGRP (1-37) [2] = biological target: T2, rat α-CGRP (1-37) (rat, C-terminal amide; N-terminal biotin when captured on the SA chip); assay: Biacore, 37°C, Fab over CGRP on SA chip
T2 construct: also called rat α (1-37); α-rat
T2 peptide: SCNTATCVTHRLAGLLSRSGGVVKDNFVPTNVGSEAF
Procedure, shortened: as §1

human α-CGRP 1-13-COOH = biological target: T3, human α-CGRP 1-13-COOH (human, ends and bridges not checked); assay: Biacore competition: 50 nM G1 Fab with 10 µM peptide over human α-CGRP on chip
T3 peptide: ACDTATCVTHRLA-OH

human α-CGRP 1-19-COOH = biological target: T4, human α-CGRP 1-19-COOH (human, ends and bridges not checked); assay: as above
T4 peptide: ACDTATCVTHRLAGLLSRS-OH

human α-CGRP 1-37 (WT) [3] = biological target: T1, human α-CGRP 1-37 (WT); assay: Biacore, 37°C, Fab over N-biotinylated CGRP on SA chip, high-resolution two-part experiment
Experimental: (§2) Biacore assay for affinity determination. […] All Biacore assays were conducted in HBS-EP running buffer (10 mM HEPES pH 7.4, 150 mM NaCl, 3 mM EDTA, 0.005% v/v polysorbate P20). CGRP surfaces were prepared by diluting the N-biotinylated CGRP to a concentration of less than 0.001 mg/mL into HBS-EP buffer and injecting it across the SA sensor chip using variable contact times. […] Samples were typically injected for 1 minute at 100 μL/min and dissociation times of at least 10 minutes were allowed. […] An entire titration series (typically generated in duplicate) was fit globally to a 1:1 Langmuir binding model using the BIAevaluation program. This returned a unique pair of association and dissociation kinetic rate constants (respectively, kₒₙ and koff) for each binding interaction, whose ratio gave the equilibrium dissociation constant (KD=koff/kₒₙ).
(§3) High-resolution analysis of binding interactions with extremely slow off rates. […] The protocol described above was used with the following modifications.

rat α-CGRP (1-37) [4] = biological target: T2, rat α-CGRP (1-37); assay: as above
Experimental: as §2, §3

human β-CGRP (1-37) = biological target: T5, human β-CGRP (1-37) (human, C-terminal amide; N-terminal biotin when captured on the SA chip); assay: Biacore, 37°C, Fab over N-biotinylated CGRP on SA chip, 20-min dissociation
T5 construct: also called human β (1-37)
T5 peptide: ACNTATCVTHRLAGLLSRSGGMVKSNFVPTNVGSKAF
Experimental: as §2

rat β-CGRP (1-37) = biological target: T6, rat β-CGRP (1-37) (rat, C-terminal amide; N-terminal biotin when captured on the SA chip); assay: as above
T6 construct: also called rat β (1-37)
T6 peptide: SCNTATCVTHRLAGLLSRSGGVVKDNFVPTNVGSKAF
Experimental: as §2

human α-CGRP 1-37 (WT) [5] = biological target: T1, human α-CGRP 1-37 (WT); assay: Biacore, 37°C, high-resolution two-part experiment
Experimental: as §2, §3

[6] = biological target: T7, human α-CGRP G33A (25-37) (human, not fully specified); assay: Biacore, 37°C, G1 Fab titrated over N-biotinylated peptide on chip
T7 construct: the entry already carries G33A
T7 peptide: NNFVPTNVASKAF-NH2
Experimental: (§4) All Biacore assays were conducted in HBS-EP running buffer (10 mM HEPES pH 7.4, 150 mM NaCl, 3 mM EDTA, 0.005% v/v polysorbate P20). CGRP surfaces were prepared by diluting the N-biotinylated CGRP to a concentration of less than 0.001 mg/mL into HBS-EP buffer and injecting it across the SA sensor chip using variable contact times. […] Samples were typically injected for 1 minute at 100 μL/min and dissociation times of at least 10 minutes were allowed. […] An entire titration series (typically generated in duplicate) was fit globally to a 1:1 Langmuir binding model using the BIAevaluation program. This returned a unique pair of association and dissociation kinetic rate constants (respectively, kₒₙ and koff) for each binding interaction, whose ratio gave the equilibrium dissociation constant (KD=koff/kₒₙ).

human α-CGRP 25-38A = biological target: T8, human α-CGRP 25-38A (human, not fully specified); assay: as above
T8 construct: residues 25-37 with an extra alanine added at the C-terminus (in the entry); also called 38A (25-38A)
T8 peptide: NNFVPTNVGSKAFA-NH2
Experimental: as §4

[7] = biological target: T9, human α-CGRP fragment 25-37 (human, not fully specified); assay: as above
T9 peptide: NNFVPTNVGSKAF-NH2
Experimental: as §4

[8] = biological target: T10, human α-CGRP K35M (19-37) (human, also: N-terminal biotin when on the chip); assay: as above
T10 construct: the entry already carries K35M
T10 peptide: SGGVVKNNFVPTNVGSMAF-NH2
Experimental: as §4

[9] = biological target: T11, human α-CGRP F27A (25-37) (human, not fully specified); assay: as above
T11 construct: the entry already carries F27A
T11 peptide: NNAVPTNVGSKAF-NH2
Experimental: as §4

[10] = biological target: T12, human α-CGRP V32A (25-37) (human, not fully specified); assay: as above
T12 construct: the entry already carries V32A
T12 peptide: NNFVPTNAGSKAF-NH2
Experimental: as §4

[11] = biological target: T13, human α-CGRP V28A (25-37) (human, not fully specified); assay: as above
T13 construct: the entry already carries V28A
T13 peptide: NNFAPTNVGSKAF-NH2
Experimental: as §4

B1: antibody G1 Fab fragment (Fab, V domains shown)
VH: EVQLVESGGGLVQPGGSLRLSCAASGFTFSNYWISWVRQAPGKGLEWVAEIRSESDASATHYAEAVKGRFTISRDNAKNSLYLQMNSLRAEDTAVYYCLAYFDYGLAIQNYWGQGTLVTVSS
VL: EIVLTQSPATLSLSPGERATLSCKASKRVTTYVSWYQQKPGQAPRLLIYGASNRYLGIPARFSGSGSGTDFTLTISSLEPEDFAVYYCSQSYNYPYTFGQGTKLEIK
Kd (human α-CGRP 1-37 (WT) [1]): 0.063 nM
Kd (rat α-CGRP (1-37) [2]): 2.57 nM
binding result (human α-CGRP 1-13-COOH): no binding (tested: 10 µM peptide)
binding result (human α-CGRP 1-19-COOH): no binding (tested: 10 µM peptide)
Kd (human α-CGRP 1-37 (WT) [3]): 0.063 nM
Kd (rat α-CGRP (1-37) [4]): 2.57 nM
Kd (human β-CGRP (1-37)): 0.155 nM
Kd (rat β-CGRP (1-37)): 0.152 nM
Kd (human α-CGRP 1-37 (WT) [5]): 0.06 nM
Kd [6]: 141 nM
binding result (human α-CGRP 25-38A): no binding
Kd [7]: 0.28 nM
Kd [8]: 0.51 nM
Kd [9]: 0.38 nM
Kd [10]: 1.71 nM
Kd [11]: 0.28 nM
